One data set relates to liver. The settings on record: human, in vivo; cited from earlier work.
A further data set deals with rat and rabbit liver. Kind of data set: In vivo animal hepatic imaging after intravenous injection of labelled compounds. The procedure:
Adult male Wistur rats weighing about 400g and male New Zealand rabbits weighing about 2.5kg. were used in the in vivo animal imaging studies. After intravenous injection of the labelled compounds (100-400uCi) as a bolus into experimental animals, hepatic imaging was performed on a PhoGamma III scintillation camera (Nuclear Chicago Corp., Des Plaines, Ill.) using a 140keV parallel collimator. Images were recorded on Polaroid type 55 film.

For data set [1] the following is noted: in vivo; cited from earlier work.

In the case of `O=C(O)c1c(Cl)c(Cl)c(Cl)c(Cl)c1-c1c2cc(I)c(=O)c(I)c-2oc2c(I)c(O)c(I)cc12` [^131 I-rose bengal], in the data set on liver, the “20:5 minutes ratio of blood ^131 I-rose bengal concentrations” value is on record as 0.39-0.51, the “time by which biliary excretion has begun” value was ≤ 20 min and the “time for maximal concentration in the liver” value is ~30 min.

B1: Radiolabelled DTBG: Radiolabelled desialylated thyroxine-binding globulin; radiolabel not specified at that place (protein, UniProt P05543 21-415, looked up)
Thyroxine-binding globulin: ASPEGKVTACHSSQPNATLYKMSSINADFAFNLYRRFTVETPDKNIFFSPVSISAALVMLSFGACCSTQTEIVETLGFNLTDTPMVEIQHGFQHLICSLNFPKKELELQIGNALFIGKHLKPLAKFLNDVKTLYETEVFSTDFSNISAAKQEINSHVEMQTKGKVVGLIQDLKPNTIMVLVNYIHFKAQWANPFDPSKTEDSSSFLIDKTTTVQVPMMHQMEQYYHLVDMELNCTVLQMDYSKNALALFVLPKEGQMESVEAAMSSKTLKKWNRLLQKGWVDLFVPKFSISATYDLGATLLKMGIQHAYSENADFSGLTEDNGLKLSNAAHKAVLHIGEKGTEAAAVPEVELSDQPENTFLHPIIQIDRSFMLLILERSTRSILFLGKVVNPTEA
modifications: desialylated; radiolabelled
notes: radiolabel not specified at that place
Consider B1, for which the “liver imaging after intravenous injection” value in the data set with rat and rabbit liver (scintillation camera) is “effective as a liver imaging agent”.

B2: DTBG: desialylated thyroxine-binding globulin from pooled human serum (protein, UniProt P05543 21-415, looked up)
Thyroxine-binding globulin: B1 Thyroxine-binding globulin
modifications: desialylated
Consider B2, for which, in data set [1], the “half-life in the circulation” value was 4 to 5 min.

B3: ^131 I-DTBG: ^131 I labelled desialylated thyroxine-binding globulin (protein, UniProt P05543 21-415, looked up)
Thyroxine-binding globulin: B1 Thyroxine-binding globulin
modifications: 131I label; desialylated
For the molecule B3, in the data set on rat and rabbit liver (in vivo), the “clearance of the iodine label by the kidneys noted, time post-injection” value was 20 or 30 minutes; the “uptake and concentration in the liver” value was “rapidly taken up by the hepatocytes”.

These data come from patent publication US4010251A, “Scanning agent composition and use in imaging liver and for biliary function” (priority 1974, dated 1977).
